Measurements published in PMC9029033.

target: T1, VPA0041-His (Vibrio parahaemolyticus RIMD 2210633) (UniProt Q87K57); assay: EMSA; details: EMSA: 20 uL, 10 ng probe (15 ng in Fig 5 legend), 1 ug poly(dI:dC), 4 uL 5x binding buffer (10 mM NaCl, 0.1 mM DTT, 0.1 mM EDTA, 10 mM Tris, pH 7.4), 25 C …
T1 sequence: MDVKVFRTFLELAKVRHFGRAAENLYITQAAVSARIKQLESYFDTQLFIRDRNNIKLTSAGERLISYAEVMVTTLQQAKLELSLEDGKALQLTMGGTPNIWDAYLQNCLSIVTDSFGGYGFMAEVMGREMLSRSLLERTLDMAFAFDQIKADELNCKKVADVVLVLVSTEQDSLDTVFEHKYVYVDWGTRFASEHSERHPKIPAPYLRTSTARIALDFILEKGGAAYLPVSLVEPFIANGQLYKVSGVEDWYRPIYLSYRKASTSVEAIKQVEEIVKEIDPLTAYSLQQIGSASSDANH

Sequence | binding
CATGCATCTTTCCTTACAGTCGGCTCGAATACGCCAAGATACAAACAAGATACATCGTCGACCTGCAGGCA (double strand) [vpa0264 promoter-3] | no binding
CATCTTAGTCTCCTTAGTTTATCACTATTTCTTTCAGGCCTTGGGATATTCCCTAGTCACTAACTAGAGGCGGTCGCTTGCCACTAATGATTAATTTGAAAATTAAAAATTTTCTAAAAAAGATCAAAATTGATGATTTTTAGTGACTTGCATTCCACTAAGTTGGGGTTTGCTACCGTTTTAGCGTTAGTTTCCGATGTGCTTTGATCGGCATCGTCGACCTGCAGGCA (double strand) [vpa1548 promoter (promoter-1)] | binds
TGCCTGCAGGTCGACGATTAGAGTTTTCCCCCTAATTTTTTTGCTTTCCGTAAACCGGAAGTTTGGTTTCCACTCTTGTTTGTAAGTCATTGATAAATATAAATAAAATTTATGGCACGTATCTTGTTTGTATCTTGGCGTATTCGAGCCGACTGTAAGGAAAGATGCATG (double strand) [vpa0264 promoter-1] | binds
TGCCTGCAGGTCGACGATGTTTGTCCTGTCGAAAGAATTCCTAATAACAGTATCCACTTTGAGGAAATTAGAGTTTTCCCCCTAATTTTTTTGCTTTCCGTAAACCGGAAGTTTGGTTTCCACTCTTGTTTGTAAGTCATTGATAAATATAAATAAAATTTATGGCACGTATCTTGTTTGTATCTTGGCGTATTCGAGCCGACTGTAAGGAAAGATGCATG (double strand) [vpa0264 promoter] | binds
TGCCTGCAGGTCGACGATCAAGTCAATGTTTTAAAAGAATATTCAAGTTAGGCACGTATCTTGCGATAAGACATACTTTCAAGGCATAGAGTTACGCCAATTACCAATGAGAGAGGGAGTAAGCTCGTG (double strand) [vpa1550 promoter-3] | binds
TGCCTGCAGGTCGACGATTCCACTCTTGTTTGTAAGTCATTGATAAATATAAATAAAATTTATGGCACGTATCTTGTTTGTATCTTGGCGTATTCGAGCCGACTGTAAGGAAAGATGCATG (double strand) [vpa0264 promoter-2] | binds
TGCCTGCAGGTCGACGATTTAGTCGCCTTGTCTTATAGGGAAACACTAGATGTTTTCGAGAGGAAGGCGGAACACATAAGGTGGAAAATACACTTCCTCTCAAATTTAAATAGTATCGCAAGTCAATGTTTTAAAAGAATATTCAAGTTAGGCACGTATCTTGCGATAAGACATACTTTCAAGGCATAGAGTTACGCCAATTACCAATGAGAGAGGGAGTAAGCTCGTG (double strand) [vpa1550 promoter (promoter-1)] | binds
TGCCTGCAGGTCGACGATGGAACACATAAGGTGGAAAATACACTTCCTCTCAAATTTAAATAGTATCGCAAGTCAATGTTTTAAAAGAATATTCAAGTTAGGCACGTATCTTGCGATAAGACATACTTTCAAGGCATAGAGTTACGCCAATTACCAATGAGAGAGGGAGTAAGCTCGTG (double strand) [vpa1550 promoter-2] | binds
TGCCTGCAGGTCGACGATAGACATACTTTCAAGGCATAGAGTTACGCCAATTACCAATGAGAGAGGGAGTAAGCTCGTG (double strand) [vpa1550 promoter-4] | binds
